“Also recorded” adds a separate entry of the source.
Key:
[1] = test system: Lin− cells; test: Plating of warfarin-exposed Lin− cells on untreated versus warfarin-treated stroma, with or without MK-2206; format: cell-based, mice; details: MK-2206 5 μM added to cocultures, P=0.02
[2] = biological target: T1, integrin β3 (Mus musculus, UniProt O54890+P43406); test: Inhibition of integrin β3 by cilengitide, pAKT in Lin− cells cocultured on BM stroma; format: cell-based, mice; details: cilengitide 0.05 μM, coculture on BM stroma cells, P=0.03
T1 construct: endogenous in cells; host or cells: murine Lin− bone marrow cells cocultured on murine BM stroma cells
T1 sequence (O54890 26-787): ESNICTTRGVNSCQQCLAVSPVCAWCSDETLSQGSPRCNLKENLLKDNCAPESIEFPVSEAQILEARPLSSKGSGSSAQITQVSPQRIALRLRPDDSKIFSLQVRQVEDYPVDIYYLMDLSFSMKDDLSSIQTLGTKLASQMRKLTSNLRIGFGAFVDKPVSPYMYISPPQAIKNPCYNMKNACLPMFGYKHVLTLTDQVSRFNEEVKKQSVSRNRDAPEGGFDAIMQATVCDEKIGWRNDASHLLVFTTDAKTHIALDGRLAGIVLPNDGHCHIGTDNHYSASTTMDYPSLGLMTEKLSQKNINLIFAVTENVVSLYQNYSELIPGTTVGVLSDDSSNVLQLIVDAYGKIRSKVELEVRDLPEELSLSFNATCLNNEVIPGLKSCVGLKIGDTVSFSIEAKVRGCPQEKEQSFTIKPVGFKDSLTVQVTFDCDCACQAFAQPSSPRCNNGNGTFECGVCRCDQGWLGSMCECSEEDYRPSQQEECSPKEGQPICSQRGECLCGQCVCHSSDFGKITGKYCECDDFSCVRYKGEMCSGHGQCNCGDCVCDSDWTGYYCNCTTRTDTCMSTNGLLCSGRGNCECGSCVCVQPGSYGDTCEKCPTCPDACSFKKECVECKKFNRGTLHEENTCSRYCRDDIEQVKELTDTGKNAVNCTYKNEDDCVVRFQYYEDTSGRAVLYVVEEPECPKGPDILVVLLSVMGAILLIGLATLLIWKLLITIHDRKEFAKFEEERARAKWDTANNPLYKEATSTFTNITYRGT
T1 sequence (P43406 31-885 limits assumed): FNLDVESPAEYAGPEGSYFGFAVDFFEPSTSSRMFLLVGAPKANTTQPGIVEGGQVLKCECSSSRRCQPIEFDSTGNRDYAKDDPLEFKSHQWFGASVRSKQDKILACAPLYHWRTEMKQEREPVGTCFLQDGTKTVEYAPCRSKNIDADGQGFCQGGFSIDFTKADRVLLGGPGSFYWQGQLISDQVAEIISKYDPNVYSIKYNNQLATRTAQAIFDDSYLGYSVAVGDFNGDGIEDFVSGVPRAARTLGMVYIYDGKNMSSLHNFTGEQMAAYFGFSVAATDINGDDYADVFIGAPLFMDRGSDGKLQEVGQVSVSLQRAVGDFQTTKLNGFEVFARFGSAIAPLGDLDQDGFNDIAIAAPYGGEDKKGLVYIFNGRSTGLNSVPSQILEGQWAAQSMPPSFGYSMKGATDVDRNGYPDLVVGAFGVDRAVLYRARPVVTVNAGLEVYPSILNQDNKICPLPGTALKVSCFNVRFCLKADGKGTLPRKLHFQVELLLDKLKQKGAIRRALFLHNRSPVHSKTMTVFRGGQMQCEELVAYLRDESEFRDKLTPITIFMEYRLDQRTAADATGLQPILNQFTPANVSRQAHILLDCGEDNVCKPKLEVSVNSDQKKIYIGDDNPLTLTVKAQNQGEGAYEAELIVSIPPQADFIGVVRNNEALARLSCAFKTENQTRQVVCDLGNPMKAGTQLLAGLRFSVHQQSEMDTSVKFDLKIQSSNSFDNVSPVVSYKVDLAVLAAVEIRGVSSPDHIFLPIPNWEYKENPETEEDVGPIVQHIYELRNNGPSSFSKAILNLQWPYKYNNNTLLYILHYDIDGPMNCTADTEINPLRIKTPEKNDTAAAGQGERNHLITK
T1 sequence (P43406 887-1044 partner limits assumed): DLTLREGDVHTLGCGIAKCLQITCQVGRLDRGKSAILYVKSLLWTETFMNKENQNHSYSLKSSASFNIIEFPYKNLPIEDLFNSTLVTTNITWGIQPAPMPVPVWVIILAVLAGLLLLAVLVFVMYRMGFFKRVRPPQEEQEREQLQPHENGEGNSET
Method: (§1) Concentrations of drugs for in vitro use were 2 μM for warfarin, 2 μg/ml for periostin, 5 μM for the AKT inhibitor MK-2206 (Selleck Chemicals, Houston, TX) and cilengitide (Selleck Chemicals, Houston, TX, Cat. No. #S7077) was used at 0.05 μM. Phosphate buffered saline served as the vehicle control.
The PE-labelled anti-pAKT antibody (Cell signaling, #5315, Danvers, MA) was used for intracellular flow cytometry after fixation and permeabilization of the cells.

[3] = test system: patients; test: Peripheral blood counts of patients on VKA versus control patients; format: in vivo, human
From the text: For FIGS. 6C-6H: Data of patients on VKA were obtained from the French health care databases. Patients with hematological disease, inflammation or sepsis were excluded. Patients admitted to the hospital for dermatological problems without hematological disease or sepsis acted as controls.

[4] = test system: wildtype mice; test: Complete blood count and flow cytometry of peripheral blood and bone marrow of treated mice; format: in vivo; details: administration of vitamin K1, P=0.04
Method: (§2) 0.5 mg/kg/d or 0.05 mg/kg/d of warfarin, resuspended in phosphate-buffered saline was administered to mice via subcutaneously implanted osmotic minipumps (ALZET minipumps, Cupertino, CA). The osmotic minipumps were changed after 14 days (if the experiment went beyond 14 days of treatment). Sham operated (skin incision and suture) mice served as controls. Warfarin treatment continued for 10-14 days. In the xenotransplantation experiments the mice were treated with warfarin via the drinking water (or normal drinking water) at a dose of 0.72 mg/100 ml for a total of 3 days a week (Pfeilschifter et al., 2011).
(§3) 5-fluorouracil was intraperitoneally injected every week at a dose of 75 mg/kg for a total of 4 doses or as a one time dose of 200 mg/kg. Recombinant mouse periostin (R&D Systems, Minneapolis, MN, cat. no. 2955-F2), produced in the Sf21 (baculovirus)-derived insect cell line, was administered intravenously at a dose of 2-4 μg per day and vitamin K was given at a dose of 15 mg/kg by oral gavage for four consecutive days.
We assessed the complete blood count of vehicle or warfarin-treated mice using a complete blood count analyzer (Scil Vet ABC, Gurnee, IL). Peripheral blood and bone marrow samples were stained with antibodies for flow cytometry, which was performed on a BD LSR Fortessa (BD Biosciences, Heidelberg, Germany). The lineage antibody cocktail contained antibodies to B220, CD5, Ter119, F4/80 and CD11b. Engraftment of human cells in NSG mice was assessed using anti-human CD45 (BD Biosciences, San José, CA).

[5] = test system: HSC; test: Competitive transplantation of bone marrow from periostin- or vitamin K-treated donor mice; format: in vivo; details: for percentage of LKS cells, cell cycle of transplanted LKS cells, number of colonies in methylcellulose: previously treated bone marrow cells compared to vehicle
Method: as §3
SJL (CD45.1) donor mice were treated with vehicle or warfarin, euthanized and long bones were flushed, followed by RBC lysis (Life Technologies, Darmstadt, Germany). For competitive transplantation 2×10^6 total BM cells from SJL mice were co-transplanted with 1×10^6 CD45.2+ BM competitor cells into lethally irradiated (900 cGy) C57BL/6N (CD45.2+) recipient mice. For serial transplantation 2×10^6 total CD45.1+ BM cells were transplanted into lethally irradiated C57BL/6N recipient mice. Cell engraftment and chimerism were assessed by flow cytometry of peripheral blood leukocytes for CD45.1 and CD45.2 after 4, 8, 12 and 16 weeks post transplantation. In the limiting dilution experiment we treated primary CD45.1+ donor mice with vehicle or warfarin for 14 days and, consequently, transplanted 5×10^5, 12.5×10^4, 6×10^4 and 1.5×10^4 pooled BM cells into 5 CD45.2+ recipients per group adding 5×10^5 CD45.2+ supporter cells. In indicated experiments we transplanted 5,000 or 10,000 sorted CD45.1+ LKS cells from mice treated with vehicle or warfarin plus 1×10^6 CD45.2+ total BM supporter cells into CD45.2+ recipient mice.

[6] = test system: hematopoietic cells from murine bone marrow; test: In vitro rescue experiment with periostin in stroma/Lin− cocultures; format: cell-based; details: for absolute number of hematopoietic cells in coculture: 2 μg/ml periostin added, warfarin-treated stroma, 5 days, P=0.02
Method: as §1
To test the direct effect of warfarin on hematopoietic cells 100,000 Lin− cells were cultured in 2 μM vehicle or warfarin in the absence of stroma cells for a total of 7 days. For the in vitro rescue experiment with periostin stroma cells were grown in warfarin for 14 days, before vehicle or periostin were added.

[7] = test system: LKS cells and myeloid cells; test: In vivo administration of periostin to mice treated with warfarin
Method: as §2, §3
For cell cycle analysis cells were permeabilized and fixed with the cytoperm/cytofix kit (BD Biosciences, San Jose, CA), followed by staining with an antibody to Ki67-PE (Biolegend, San Diego, CA) overnight at 4 C. Consequently, cells were washed and resuspended in PBS with DAPI (1 ng/ml). For detection of apoptosis cells were first stained for surface markers, washed with Annexin V buffer (Life Technologies, Darmstadt, Germany), stained with Annexin V-PE (Life Technologies, Darmstadt, Germany), washed with Annexin V binding buffer, resuspended in PBS with DAPI and analyzed.

[8] = test system: Lin− cells; test: Adhesion assay of Lin− cells to stroma cells; format: cell-based, mice; details: periostin added, warfarin- and more prominently vehicle-treated conditions, P=0.03
From the text: In vivo administration of periostin to mice treated with warfarin also ‘rescued’ the number of LKS cells positive for integrin β3, whose binding to its ligand periostin (Gillan et al., 2002) is known to mediate HSC support (P=0.0013; FIG. 5A) (Khurana and Verfaillie, 2013). […] In order to test, whether the periostin/integrin β3-axis mediates the adhesion of HSPC to stroma, the inventors performed an adhesion assay plating untreated Lin− cells on vehicle- or warfarin-treated stroma cells in the presence or absence of periostin. […] Due to the role of pAKT, which lies downstream of integrin β3 (Hynes, 2002), in periostin-mediated cell survival (Bao et al., 2004) the inventors tested the effect of inhibition of integrin β3 by cilengitide on pAKT in Lin− cells after coculture on BM stroma cells. Similar to the reduction of pAKT+ Lin− cells in mice treated with warfarin (FIG. 3A), inhibition of integrin β3 led to a decrease of pAKT in Lin− cells (P=0.03).
as §1

NC1(c2ccc(-c3nc4ccn5c(=O)[nH]nc5c4cc3-c3ccccc3)cc2)CCC1 [MK-2206]
temporary recovery of warfarin-exposed Lin− cells on untreated stroma [1]: prevented

CC(C)[C@H]1C(=O)N[C@@H](CCCN=C(N)N)C(=O)NCC(=O)N[C@@H](CC(=O)O)C(=O)N[C@H](Cc2ccccc2)C(=O)N1C [cilengitide]
pAKT in Lin− cells [2]: decrease

O=C1c2ccccc2C(=O)C1c1ccc(F)cc1 [fluindione]
absolute number of leukocytes ([3]; 282 patients on warfarin (P=0.0007) or 89 on fluindione (P=0.029) vs 145 control patients): reduced | absolute number of monocytes ([3]; 282 patients on warfarin (P=0.004) or 89 on fluindione (P=0.046) vs 145 control patients): reduced | platelets ([3]; warfarin- or fluindione-treated patients): not reduced

CC1=C(C/C=C(\C)CCC[C@H](C)CCC[C@H](C)CCCC(C)C)C(=O)c2ccccc2C1=O [vitamin K1]
decreased percentage of myeloid cells in previously warfarin-treated mice [4]: rescued | percentage of LKS cells, cell cycle of transplanted LKS cells, number of colonies in methylcellulose [5]: did not lead to an increase | engraftment of donor cells ([5]; treatment of donor mice with vitamin K prior to competitive transplantation): did not lead to increased engraftment

B1: periostin: Recombinant mouse periostin (R&D Systems, cat. no. 2955-F2), produced in the Sf21 (baculovirus)-derived insect cell line (protein)
chain: NSYYDKVLAHSRIRGRDQGPNVCALQQILGTKKKYFSSCKNWYQGAICGKKTTVLYECCPGYMRMEGMKGCPAVMPIDHVYGTLGIVGATTTQHYSDVSKLREEIEGKGSYTYFAPSNEAWENLDSDIRRGLENNVNVELLNALHSHMVNKRMLTKDLKHGMVIPSMYNNLGLFINHYPNGVVTVNCARVIHGNQIATNGVVHVIDRVLTQIGTSIQDFLEAEDDLSSFRAAAITSDLLESLGRDGHFTLFAPTNEAFEKLPRGVLERIMGDKVASEALMKYHILNTLQCSEAITGGAVFETMEGNTIEIGCEGDSISINGIKMVNKKDIVTKNGVIHLIDEVLIPDSAKQVIELAGKQQTTFTDLVAQLGLASSLKPDGEYTLLAPVNNAFSDDTLSMDQRLLKLILQNHILKVKVGLSDLYNGQILETIGGKQLRVFVYRTAICIENSCMVRGSKQGRNGAIHIFREIIQPAEKSLHDKLRQDKRFSIFLSLLEAADLKDLLTQPGDWTLFAPTNDAFKGMTSEERELLIGDKNALQNIILYHLTPGVYIGKGFEPGVTNILKTTQGSKIYLKGVNETLLVNELKSKESDIMTTNGVIHVVDKLLYPADIPVGNDQLLELLNKLIKYIQIKFVRGSTFKEIPMTVYRPAMTKIQIEGDPDFRLIKEGETVTEVIHGEPVIKKYTKIIDGVPVEITEKQTREERIITGPEIKYTRISTGGGETGETLQKFLQKEVSKVTKFIEGGDGHLFEDEEIKRLLQGDTPAKKIPANKRVQGPRRRSREGRSQ
absolute number of hematopoietic cells in coculture [6]: increase of the number of hematopoietic cells | absolute number of hematopoietic cells in coculture ([6]; listed as recombinant periostin): restored | percentage of LKS cells in warfarin-treated cultures ([6]; periostin added, P=0.056): strong trend towards restoration | engraftment of CD45.1+ bone marrow (ratio CD45.1/CD45.2) ([5]; donor treated for four days, four weeks after transplantation, P=0.02): increased engraftment | engraftment of CD45.1+ bone marrow ([5]; later time points (data not shown)): not at later time points | percentage of LKS cells, cell cycle of transplanted LKS cells, number of colonies in methylcellulose [5]: did not lead to an increase | annexin V+ apoptotic LKS cells ([7]; periostin and warfarin (or vehicle) vs warfarin (or vehicle) alone, P=0.02): significantly reduced | median fluorescence intensity of integrin β3 on LKS cells ([7]; periostin to warfarin-treated mice): remained unchanged | percentage of myeloid cells in peripheral blood ([7]; periostin to warfarin-treated mice, 4 day treatment, P=0.007): rescued; also recorded: increase of the percentage of myeloid cells | number of LKS cells positive for integrin β3 ([7]; periostin to warfarin-treated mice, P=0.0013): rescued | adhesion of Lin− cells to stroma [8]: restored or augmented
